EC50 and Top Inhibition (%) data for 15 molecules are collected here from patent publication US20260234247A1.

B1: LK-RB1-54 (antibody, human IgG4 S228P, kappa, V domains shown)
VH: DVQLQESGPGLVKPSQSLSLTCSVTGYSITSGFYWNWIRQFPGNKLEWMGHISYDGTNNYNPSLKNRISITRDTSKNLFFLKLNSVTTEDTATFHCARGGYGGSYGFDYWGQGTTLTVSS
VL: ENVLTQSPAIMSASLGEKVTMSCRASSSVNYMYWYQQKSDASPKLWIYYTSNLAPGVPVRFSGSGSGNSYSLTISSMEGEDAATYYCQQFTSSPWTFGGGTKLEIKR
B2: LK-RB1-39 (antibody, human IgG4 S228P, kappa, V domains shown)
VH: EVQLQQSGAELVRPGASVKLSCTASGFNIKDDYVHWVNQRPEQGLEWIGWIDPENGDTGYASKFQDKATITADTSSNTAYLHLSSLTSEDTAVYYCTTTRWTGSYWGQGTTLTVSS
VL: QIVLTQSPAIMSASPGEKVTITCSASSSVNYMHWFQQKPGSSPKLWIYSTANLASGVPARFSGSGSGTSYSLTISRMEAEDAATYYCQQRSSYPPTWTFGGGTKLEIKR
B3: LK-RB1-42 (antibody, human IgG4 S228P, kappa, V domains shown)
VH: QVQLQQPGAELVKPGTSVKLSCKASGYSFISYWVYWVKQRPGQGLEWIGMIHPNSGSTNFNEKFRYKATLTVDKSSSTAYIQLSSLTSEDSAVYYCGRSDDGYPYHAMDSWGQGTSVTVSS
VL: DIVMTQSQKFMSTSVGDRVSVTCKASQNVGTNVAWYQQKPGQSPKALIYSASYRFSGVPDRFTGSGSGTDFTLTIGNVQSEDLAEYFCHQYKNYPLTFGGGTKLEIKR
B4: LK-RB2-8 (antibody, human IgG4 S228P, kappa, V domains shown)
VH: QIQLVQSGPELKKPGETVKISCKASGYSFASYGMGWVKQAPGKGLKWLGWINTHSGVPTYADDFKGRFAFSLETSASTAYLQINNLKNEDTATYFCAHYGRPWFPYWGQGTLVTVSA
VL: DIQMTQSPASLSASVGETVTITCRTSENIYSYLAWYQQKQGKSPQLLVYNAKSLAEGVPSRFSGSGSGTQFSLRINSLQPEDFGTYYCQQHYETPLTFGAGTKLELKR
B5: LK-RB2-16 (antibody, human IgG4 S228P, kappa, V domains shown)
VH: QIQLVQSGPELKKPGETVKISCKASGYTFTTYGMGWVKQAPEKGLKWMGWINTNSGAPTYGDDFKGRFAFSLETSASTAYLQINNLKNEDTATYFCAHYGRPWFAYWGQGTLVTVSA
VL: DIQMTQSPASLSASVGETVTITCRASENIYSYLAWYHQKQGESPQLLVYNAKTLAEGVPSRFSGSGSGTQFSLKINSLQPEDFGSYYCQHHYNIPLTFGAGTKLELKR
B6: LK-RB1-43 (antibody, human IgG4 S228P, kappa, V domains shown)
VH: EFQLQQSGPELMKPGASVKISCKASGYSFTDYNMNWVKQSNGKSLEWIGIIDPNYGTTTYNQKFKGRATLTVDQSSNTAYMQLNSLTSEDSAVYYCAREGRYSWFAYWGQGTLVTVSA
VL: DIQMTQSPGALSVSVGETVTITCRASENINSNLAWYQQKQGKSPQLLVYAATNLADGVPSRFSGSGSGTQYSLKINSLQSEDFGSYHCQHFWGTPFTFGSGTKLEIKR
B7: LK-RB1-59 (antibody, human IgG4 S228P, kappa, V domains shown)
VH: QIQLVQSGPELKKPGETVKISCKASGYTFTTYGMSWVKQAPGKGLKWMGWINTYSGVPTYADDFKGRFAFSLETSASTAYLQINNLKNEDTATYFCARRRIYYGNKGYAMDYWGQGTSVTVSS
VL: DIQMTQSPASLSVSVGETVTITCRASENIYSNLVWYQQKQGKSPQLLVYTATNLADGVPSRFSGSGSGTQFSLKINSLQSEDFGSYYCQHFWGTPWTFGGGTKLEIKR
B8: LK-RB1-35 (antibody, human IgG4 S228P, kappa, V domains shown)
VH: DVQLQESGPGLEKPSQSLSLTCSVTGYSITRGYQWNWIRQFPGNKLEWMGYISYDGSNNYNPSLKNRISITRDASKNQFFLKLNSVTTEDTATYYCARRSYNSIDYWGQGTTLTVSS
VL: DIVLTQSPATLSVTPGDSVSLSCRASQSISSNLHWYQQKSHESPRLLIKYASQSISGIPSRFSGSGSGTDFTLSINSVETEDFGMYFCQQSNSWPLTFGAGTKLELKR
B9: LK-RB1-36 (antibody, human IgG4 S228P, kappa, V domains shown)
VH: DVQLQESGPGLEKPSQSLSLTCSVTGYSITRGYQWNWIRQFPGNKLEWMGYISYDGSNNYNPSLKNRISIIRDTSKNQFFLKLNSVTTEDTATYYCARRSYNSIDYWGQGTTLTVSS
VL: DIVLTQSPATLSVTPGDSVSLSCRASQSISNNLHWYQQKSHESPRLLIKYASQSISGIPSRFSGSGSGTDFTLSINSVETEDFGMYFCQQSNSWPLTFGAGTKLELKR
B10: LK-RB1-38 (antibody, human IgG4 S228P, kappa, V domains shown)
VH: DVQLQESGPGLVQPSQSLSLTCSVTGYSITSGYQWNWIRQLPGNKLEWMAYISFDGSNNYNPSLKNRISITRDTSKNQFFLKLKSVTTEDTATYYCARRDYDGVAYWGQGTLVTVSA
VL: EIVLTQSPATLSVTPGDRVSLSCRASQNISNYLHWYQQKSHGSPRLIIKYASQSISGIPSRFSGSGSGTDFTLSINSVETEDFGMYFCQQSNSWPLTFGAGTKLELKR
B11: LK-RB1-44 (antibody, human IgG4 S228P, kappa, V domains shown)
VH: QVQLQQSGTELAKPGASVKLSCKASGYTFTNYWMHWIKQRPGQGLEWIGYVHPTSDYTKYNQKFKDKATLTADKSSSTAYMQLNSLTYEDSAVYYCTRSSLYDTNYVFDSWGQGTTLTVSS
VL: DILLTQSPAILSVSPGERVSFSCRASQSIGRSIHWFQQRTNGSPSLLIKYASESISGIPSRFSGGGSGTDFTLSISNVESEDIADYYCQQSNNWPFTFGSGTKLEIKR
B12: LK-RB1-34 (antibody, human IgG4 S228P, kappa, V domains shown)
VH: QVQLQQSGAELVKPGASVKLSCKASGYTFTEYTIHWVKQRSGQGLEWIGWFYPGSDSIKYNEKFKDKATLTADKSSSTVYMELSRLTSEDSAVYFCSRHEGPYFTSQYYFDYWGQGTTLTVSS
VL: DILLTQSPAILSVSPGERVSFSCRASRYIGTSIHWYQQRTNGSPRLLIKYASESISGIPSRFSGSGSGTDFTLSINSVESEDIADYYCQQSNTWPLTFGAGTKLELKR
B13: LK-RB1-37 (antibody, human IgG4 S228P, kappa, V domains shown)
VH: QVQLQQPGAELVKPGASVKLSCKASGYTFTSYWMHWVKQRPGRGPEWIGRIDPNSGYARYNEKFKNKATLTADKPSSTADMHLSSLTSEDSAVYYCTRSFITTAEWFFDVWGTGTTVTVSS
VL: DILLTQSPAILSVSPGERVSFSCRASQSIGTSIHWYQQRRNGSPRLLIKYTSESISGIPSRFSGSGSGTDFTLSINSVESEDIADYYCQQSNSWPHTFGGGTKLELKR
B14: LK-RB1-45 (antibody, human IgG4 S228P, kappa, V domains shown)
VH: QVQLQQSGTELARPGASVKLSCKASGYTFTNFWMHWIKQRPGQGLEWIGYVNPTSDYTKYNQKFKDKATLTADKSSSTAYMQLNSLTYEDSAVYYCTRSSLYDTNYVFDSWGQGTTLTVSS
VL: DILLTQSPAILSVSPGERVSFSCRASQSIGRSIHWYQQRTNGSPRLLIKYASESISGIPSRFSGGGSGTDFTLSISNVESEDIADYYCQQSNNWPFTFGSGTKLEIKR
B15: LK-RB1-46 (antibody, human IgG4 S228P, kappa, V domains shown)
VH: EVQLQQSGPELVKPGASVKISCKTSGYTFTDYYMNWVKQSHGKSLEWIGDIYPINGDISYNQKFKGKATLTVDKSSSTVYMEIRSLTYEDSAVYYCARLAQTTSGGFDYWGQGTTLTVSS
VL: DIVLTQSPTSLAVSLGQRAIISCKASQSVSFAGTSLMHWYQQKPGQQPKLLIYRASNLKAGVPTRFSGSGSRTDFTLNIHPVEEDDAATYYCQQSREYPMYTFGGGTKLEIKR

The target of one assay is Rhesus LILRB1 (NP_001035762.2) on CHOK1 cells (rhesus macaque) (UniProt F7H3G7). The assay can be described thus: cell based blocking assay on CHOK1-rhesus LILRB1 (NP_001035762.2) cells; blocked ligand not named.
By EC50 is commonly meant the concentration needed to bring the measured effect to its halfway point. For B1, the EC50 turned out to be 1.2 nM and the Top Inhibition (%) is 54%.
In turn, B2 registered a 50% effective concentration (EC50) of 0.16 nM and a Top Inhibition (%) of 73.1%.

A further assay has the same target. The assay can be described thus: flow cytometry on CHOK1-rhesus LILRB1 (NP_001035762.2) cells. A general note: Flow cytometry measures light scatter and fluorescence of single cells or particles in a stream.
Consider B3, for which the EC50 worked out at 59.8 nM.
B4 registered a 50% effective concentration (EC50) of 15.1 nM.
B5 returned a 50% effective concentration (EC50) of 18.5 nM. This EC50 and that of the molecule before are within 1.5-fold of each other.
Still for that read-out and setting: for B6 the value was 1.62 nM.
Consider B7, for which the 50% effective concentration (EC50) is 40.2 nM. This EC50 lies about 25-fold higher than the previous one.
Molecule B8 showed an EC50 of 0.64 nM.
On the same count and under the same terms, for B9 the value was 0.54 nM.
As for B10, the concentration for a half-maximal effect (EC50) stood at 4.97 nM.
Same read-out and setting: as for B11, the figure is 769 nM; as for B12, 8.06 nM; as for B13, 37.7 nM.
Same read-out and setting: as for B14, the figure is 96.1 nM.
The molecule B15 yielded a half-maximal effective concentration (EC50) of 2.71 nM.
B2 yielded a half-maximal effective concentration (EC50) of 0.36 nM.
